In patent publication US20220177587A1, “METHODS AND USES OF VARIANT CD80 FUSION PROTEINS AND RELATED CONSTRUCTS” (Alpine Immune Sciences, Inc., priority 2018, published 2022):

Columns and labels:
allogeneic CD4+ T cells = experiment: Mixed Lymphocyte Reaction (MLR), IFN-gamma; assay type: cell-based, human; conditions: Table E33; culture supernatant
Method: Soluble rCD80.Fc bioactivity was tested in a human Mixed Lymphocyte Reaction (MLR). Human primary dendritic cells (DC) were generated by culturing monocytes isolated from PBMC (BenTech Bio, USA) in vitro for 7 days with 500U/ml rIL-4 (R&D Systems, USA) and 250 U/ml rGM-CSF (R&D Systems, USA) in Ex-Vivo 15 media (Lonza, Switzerland). 10,000 matured DC and 100,000 purified allogeneic CD4+ T cells (BenTech Bio, USA) were co-cultured with variant CD80 Fc fusion proteins and controls in 96 well round bottom plates in 200 μl final volume of Ex-Vivo 15 media. On day 5, IFN-gamma secretion in culture supernatants was analyzed using the Human IFN-gamma Duoset ELISA kit (R&D Systems, USA). Optical density was measured by VMax ELISA Microplate Reader (Molecular Devices, USA) and quantitated against titrated rIFN-gamma standard included in the IFN-gamma Duo-set kit (R&D Systems, USA).

human pan T cells = experiment: Anti-CD3 coimmobilization assay, IFN-gamma; assay type: cell-based; conditions: Table E33; culture supernatant, 3 days
Method: Costimulatory bioactivity of CD80 fusion variants was determined in anti-CD3 coimmobilization assays. 1 nM or 4 nM mouse anti-human CD3 (OKT3, Biolegends, USA) was diluted in PBS with 1 nM to 80 nM rCD80.Fc variant proteins. This mixture was added to tissue culture treated flat bottom 96-well plates (Corning, USA) overnight to facilitate adherence of the stimulatory proteins to the wells of the plate. The next day, unbound protein was washed off the plates and 100,000 purified human pan T cells (BenTech Bio, US) or human T cell clone BC3 (Astarte Biologics, USA) were added to each well in a final volume of 200 μl of Ex-Vivo 15 media (Lonza, Switzerland). Cells were cultured 3 days before harvesting culture supernatants and measuring human IFN-gamma levels with Duoset ELISA kit (R&D Systems, USA) as described above.

CD28 [1] = target: T1, CD28 (Homo sapiens, UniProt P10747); experiment: Flow binding to Jurkat/IL2 reporter cells (CD28); parameters: host or cells: Jurkat cells expressing an IL-2-luciferase reporter
Method: (§1) Binding of selected immunomodulatory fusion proteins to cognate binding partners was assessed. […] Cells were sorted in a Bio-Rad S3 Cell Sorter (Bio-Rad Corp., USA) to >98% purity. Jurkat/IL2 reporter cells, which endogenously express CD28, were used to detect binding to CD28.
(§2) For staining and analysis by flow cytometry, 100,000 cells of appropriate transfected cells were plated in 96-well round bottom plates. Cells were spun down and resuspended in staining buffer (phosphate buffered saline (PBS), 1% bovine serum albumin (BSA), and 0.1% sodium azide) for 20 minutes to block non-specific binding. […] Primary staining was performed on ice for 45 minutes, before washing cells in staining buffer twice. Phycoerythrin (PE)-conjugated anti-human Fc (Jackson ImmunoResearch, USA) was diluted 1:150, added to cells and incubated another 30 minutes on ice. Cells were then washed twice with 150 μL/well stain buffer, fixed in 2% formaldehyde/PBS, and analyzed on Intellicyt flow cytometer (Intellicyt Corp., USA). PE Mean Fluorescence Intensity (MFI) was calculated for each cell type with FlowJo Version 10 software (FlowJo LLC, USA).
(§3) Binding assays were carried out to assess the specificity and affinity of multivalent proteins to cell-expressed CTLA-4, CD28, and PD-L1 counter structures.
(§4) The EC50 for binding also was determined.

CD28 [2] = target: T1, CD28; experiment: Jurkat/IL2 + K562/OKT3 (no PD-L1) reporter assay of CD80 ECD-Fc (effector); assay type: cell-based; parameters: host or cells: Jurkat cells expressing an IL-2-luciferase reporter; conditions: aAPC without PD-L1
Method: The bioactivity of the generated molecules also was assessed using a Jurkat report assay as described in Examples 9 to assess CD28 costimulation of the molecules.

huPD-L1 = huPD-L1 (Homo sapiens, UniProt Q9NZQ7); experiment: Flow binding to CHO cells stably expressing PD-L1; parameters: huCTLA4 and huPD-L1, full-length mammalian surface expression constructs were generated; expressed in transfected cells; host or cells: CHO cells, lentiviral transduction, sorted to >98% purity; conditions: 66.7 nM
Method: as §1, §2, §3, §4

huCTLA4 = huCTLA4 (Homo sapiens, UniProt P16410); experiment: Flow binding to CHO cells stably expressing CTLA4; parameters: huCTLA4 and huPD-L1, full-length mammalian surface expression constructs were generated; expressed in transfected cells; host or cells: CHO cells, lentiviral transduction, sorted to >98% purity
Method: as §1, §2, §3, §4

huPD-L1/MC38 cells = experiment: huPD-L1 MC38 tumor model, combination with oxaliplatin; assay type: in vivo, mouse; conditions: monotherapy
Method: To test the anti-tumor activity of the exemplary variant, it was evaluated alone or in combination with the platinum-based chemotherapeutic agent, oxaliplatin, in mice bearing human PD-L1-expressing MC38 tumors, which is a syngeneic mouse colon carcinoma solid tumor model.
The huPD-L1 MC38 cell line was generated by transducing parental MC38 cells with huPD-L1 using viral transduction. Eight-week old female C57/BL6NJ mice (The Jackson Laboratories, Sacramento, Calif.) were implanted subcutaneously with 0.5×10^6 huPD-L1/MC38 cells. For injections, 0.1 mL of cells (0.5×10^6 cells) were injected subcutaneously (SC) in the right mid-flank region.
On day 1, mice were randomized into four groups of 10 mice each, with all mice in each group having about equal mean tumor volumes (˜108 mm^3). Tumors were measured with electronic calipers two-dimensionally twice weekly, beginning on day 7 post-tumor cell implant (referred to as “day 1”). Tumor volume was calculated as length×(width×2)×0.5, with the length being the longer of the two measurements.
As shown, 30% of the mice in the monotherapy group were tumor free by the end of the study.

Pan T cells = experiment: Primary T cell stimulation assay with K562/OKT3 +/- PD-L1 (IL-2, IFN-gamma, proliferation); assay type: cell-based, human; parameters: IL-2 release, K562/OKT3 (No PD-L1), CD80-IgV Fc (effector), 1 nM / IL-2 release, K562/OKT3 (No PD-L1), CD80-IgV Fc (effector), 10 nM / IL-2 release, K562/OKT3 (No PD-L1), CD80-IgV Fc (effector), 100 nM / IL-2 release, K562/OKT3/PD-L1, CD80-IgV Fc (inert), 1 nM / IL-2 release, K562/OKT3/PD-L1, CD80-IgV Fc (inert), 10 nM / IL-2 release, K562/OKT3/PD-L1, CD80-IgV Fc (inert), 100 nM: unit not given here; conditions: 72 hr
Method: IFN-gamma, IL-2 and proliferation were determined after 72 hr. incubation.

Chain of huCTLA4 (P16410 36-223): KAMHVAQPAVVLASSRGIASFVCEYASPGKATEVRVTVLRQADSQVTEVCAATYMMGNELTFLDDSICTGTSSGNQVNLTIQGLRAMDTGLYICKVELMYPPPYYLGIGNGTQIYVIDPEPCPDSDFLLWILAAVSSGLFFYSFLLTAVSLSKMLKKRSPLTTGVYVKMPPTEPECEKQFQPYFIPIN
Chain of huPD-L1 (Q9NZQ7 19-290): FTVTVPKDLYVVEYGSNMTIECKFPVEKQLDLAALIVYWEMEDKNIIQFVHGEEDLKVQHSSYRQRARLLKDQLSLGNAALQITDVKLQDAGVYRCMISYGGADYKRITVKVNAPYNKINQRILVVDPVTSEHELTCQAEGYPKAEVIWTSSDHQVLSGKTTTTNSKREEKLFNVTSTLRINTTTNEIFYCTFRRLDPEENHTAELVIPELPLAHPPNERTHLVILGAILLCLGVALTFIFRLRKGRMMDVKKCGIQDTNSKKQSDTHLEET

Row | Molecule | Relative Luminescence at 98 pM (CD28 [2]) [RLU] | Relative Luminescence at 391 pM (CD28 [2]) [RLU] | Relative Luminescence at 1563 pM (CD28 [2]) [RLU] | Relative Luminescence at 6250 pM (CD28 [2]) [RLU] | Relative Luminescence at 25000 pM (CD28 [2]) [RLU] | Relative Luminescence at 100000 pM (CD28 [2]) [RLU] | CHO/PD-L1 MFI at 66.7 nM (huPD-L1) | other results
1 | WTCD80 | – | – | – | – | – | – | – | MLR IFN-gamma levels (allogeneic CD4+ T cells): 19211 pg/mL; Coimmobilization with anti-CD3 IFN-gamma (human pan T cells): 509 pg/mL
2 | CD80 (S21P/L70Q/D90G/I118V/T120S/T130A) ECD-Fc: variant full CD80 ECD fused to effector human IgG1 Fc (SEQ ID NO:1527) | 1042 | 993 | 1049 | 1203 | 1730 | 2197 | 103 | Jurkat/CD28 MFI at 66.7 nM (CD28 [1]; 66.7 nM): 282; EC50 (CD28 [1]; flow binding, read-out: Jurkat/CD28 EC50): > 200 nM
3 | CD80 (E35D/D46E/M47V/V68M/D90G/K93E) ECD-Fc: variant full CD80 ECD fused to effector human IgG1 Fc (SEQ ID NO:1527) | 949 | 939 | 1022 | 1213 | 1558 | 2046 | 287 | CHO/CTLA4 MFI at 66.7 nM (huCTLA4; 66.7 nM): 24566; EC50 (huCTLA4; flow binding): 10.5 nM
4 | O=C1[O][Pt]2([NH][C@@H]3CCCC[C@H]3[NH]2)[O]C1=O [oxaliplatin, reference compound] | – | – | – | – | – | – | – | antitumor activity (huPD-L1/MC38 cells): only modestly effective as monotherapy; tumor free mice by the end of the study (huPD-L1/MC38 cells): no tumor-free mice
5 | Inert Fc Control | – | – | – | – | – | – | – | IL-2 release, K562/OKT3 (No PD-L1), CD80-IgV Fc (effector), 1 nM (Pan T cells; Pan T cells + K562/OKT3 (no PD-L1), effector Fc format (controls as labelled), 1 nM): 7040; IL-2 release, K562/OKT3 (No PD-L1), CD80-IgV Fc (effector), 10 nM (Pan T cells; Pan T cells + K562/OKT3 (no PD-L1), effector Fc format (controls as labelled), 10 nM): 6335; IL-2 release, K562/OKT3 (No PD-L1), CD80-IgV Fc (effector), 100 nM (Pan T cells; Pan T cells + K562/OKT3 (no PD-L1), effector Fc format (controls as labelled), 100 nM): 5512; IL-2 release, K562/OKT3/PD-L1, CD80-IgV Fc (inert), 1 nM (Pan T cells; Pan T cells + K562/OKT3/PD-L1, inert Fc format (controls as labelled), 1 nM): <LOD; IL-2 release, K562/OKT3/PD-L1, CD80-IgV Fc (inert), 10 nM (Pan T cells; Pan T cells + K562/OKT3/PD-L1, inert Fc format (controls as labelled), 10 nM): 143; IL-2 release, K562/OKT3/PD-L1, CD80-IgV Fc (inert), 100 nM (Pan T cells; Pan T cells + K562/OKT3/PD-L1, inert Fc format (controls as labelled), 100 nM): <LOD
